This note sets out measurements from PMC4634852.

The assay addresses Spindle-F (Spn-F) (UniProt Q9V9Y9). The assay can be described thus: anti-FLAG co-IP of differently tagged Spn-F. The following applies: reference: wild-type Spn-F with Ik2; sites S53,S85,S172,S202,S264,S270,S325,S349.

“Spindle-F (Spn-F) (from UniProt Q9V9Y9) SpnF-8A with Ik2”: the “binding against the reference” value is on record as “stronger”.
